Test results from patent publication US20050053993A1, “Uses of an endothelial cell receptor” (priority 2002, published 2005).

Tests used:
HT-29 = assay: Tumor cell proliferation, HT-29; type: cell-based; settings: HT-29, 72 hours
Method: (§1) Cell Proliferation Assay. The effect of rK5 and rK5 peptides on endothelial cells were assessed using a proliferation assay with 1% BSA and 3 ng/ml bFGF in serum-free media. Relative cell numbers in each well of a 96 well microplate after incubation for 72 hours in the absence or presence of inhibitors were determined by using the AQueous cell proliferation assay (Promega, San Luis Obispo, Calif.). For all other cell lines tested for proliferation, minimal growth media was used (Cao, Y., Ji, R., Davidson, D., Schaller, J., Marti, D., Sohndel, S., McCance, S., O'Reilly, M., Llinas, M., and Folkman, J. Kringle domains of human angiostatin. Characterization of the anti-proliferative activity on endothelial cells. (1996) J. Biol. Chem. 271, 29461-29467). Results are presented as the percent inhibition of control cell (bFGF-induced) proliferation.

MDA 445 = assay: Tumor cell proliferation, MDA 445; type: cell-based; settings: MDA 445, 72 hours
Method: as §1

endothelial cells = assay: Binding of labeled K5 to endothelial cells (Scatchard); parameters: species or system human; settings: stimulated vs starved cells
Excerpt: FIG. 10A is a graph showing the amount of surface expressed GRP78 on endothelial cells compared to rK5 binding. For all the assays in this figure, 50,000 cells were attached to 96 well plates. Human rK5 potency is highly dependent on the extent of iodination because it contains a readily iodinated tyrosine in its binding sequence. […] However dog K5 has a phenylalanine in this position naturally and is folded and active in these assays. Accordingly ^125IrK5 (dog) was used as a reagent. ^125IrK5 (dog) was added to the wells and incubated at room temperature for 1 hour. After 1 hour the cells were washed and the amount of I^125IrK5 (dog) bound was counted.
FIG. 11 is a graph comparing the binding of rK5 to starved, quiescent endothelial cells with that of endothelial cells stimulated by VEGF/bFGF. […] The number of counts remaining bound to the cells after extensive washing determined total amount of rK5 bound.
Binding of human ^125IrK5 to Endothelial Cells: Tritium-labeled rK5 was added to monolayers of 50,000 HMVEC cells that were either starved or stimulated for 16 hours by 15 ng/ml bFGF and 5 ng/ml VEGF in 96 well plates. […] After 1 hour the cells were washed and lysed with M-Per (Pierce, Racine, Wis.) and the amount of ^125IK5 (dog) bound was counted. […] Cells were washed and the amount of bound ^125IK5 (dog) bound was counted. […]

tumor cell lines = assay: Apoptosis of various tumor cell lines under hypoxia; type: cell-based; settings: 500 nM rK5, hypoxia overnight; exceptions Lewis Lung and PC-3
Method: FIG. 15B is a graph showing the effect of rK5 on induction of apoptosis in various tumor cell lines tested under hypoxic conditions. Cells were plated in 96-well plates overnight. Half the plates were put in hypoxic chambers overnight at 37° C. with and without 500 nM rK5. Increased apoptosis was shown by an ELISA technique that measures the number of nucleosome fragments. The apoptotic index was calculated from the apoptosis rate of control cells (without K5 and with or without hypoxia). The samples were run in quadruplicate.

B1: rK5: recombinant kringle 5 fragment of human plasminogen (residues 450-543), expressed in E. coli or yeast (protein)
chain: LLPDVETPSEEDCMFGNGKGYRGKRATTVTGTPCQDWAAQEPHRHSIFTPETNPRAGLEKNYCRNPDGDVGGPWCYTTNPRKLYDYCDVPQCAA
HT-29
  IC50 values for cell proliferation: >100 µg/mL
MDA 445
  IC50 values for cell proliferation: >100 µg/mL
Endothelial cells
  binding to stimulated endothelial cells upregulated as compared to starved cells: 4-10 fold
Tumor cell lines
  induction of apoptosis in tumor cell lines under hypoxic conditions: induced apoptosis in 8 out of 10 tumor cell lines
